Measurements reported in a protein production outcome set (Wang et al. 2014).

Assay: label from the status in PepcDB records

## MVNLDAEIYEHLNKQIKINELRYLSSGDDSDTFLCNEQYVVKVPKRDSVRISQKREFELYRFLENCKLSYQIPAVVYQSDRFNIMKYIKGERITYEQYHKLSEKEKDALAYDEATFLKELHSIEIDCSVSLFSDALVNKKDKFLQDKKLLISILEKEQLLTDEMLEHIETIYENILNNAVLFKYTPCLVHNDFSANNMIFRNNRLFGVIDFGDFNVGDPDNDFLCLLDCSTDDFGKEFGRKVLKYYQHKAPEVAERKAELNDVYWSIDQIIYGYERKDREMLIKGVSELLQTQAEMFIF
  protein production: not failed

## MVNPAQARQLDKIRKVNYASNTFELIAKEWLQMKDWAEITKTRRLDMLERVVFPAIGKLPVREITPHHILKILQETAKRGAPTVAAEARRTISSVFELAVATLRADSDPVWPVRKALPALEHHHHHH
  protein production: failed

## MVPEFIILGAAILLSICDLFFKLNHRYVALGAIAAIVLAIVSLITLYSEPAGDILNGSFVLDGFSKGFKTLLLGASALILCTAMSDDKKNPIEDKGEYYYLFLMALLGAMFMASSVDFITLFVGLELLSLSSYILVGIRKKSRASNEAAMKYVISGGIGTAITLFGMSYLYGITGSTNIVDMQKVLTGELASGIQLLLALAFLLLLVGLSFKIATVPFHMWAPDVYEGAATPVTAFLGTISKIAGFLLIIRLFLMIFASVLIQGDMQSLYGHMSIYIAVLASITMIVGNVVALKQYNIKRLFAYSGIAHAGYLLVPLVALSPFTMDSMWFYMLAYMLMNIGAFAIIHGLILQNNEENITIFTGLYKRSPFTAIMMTIFILSLAGIPGTAGFIGKINIFLGALHVEPAHYVLASIMMGTTVVSFVYYFRILQQMFFRTGETEERIRLPLNIKVVMSLCAISIVILGIMPMIGYNFFYEYFPLMKDFFFLGNVVQ
  protein production: not failed

## MVPEITIDVNVFPSPRKSSSNTVEINLKRESDDKCDDAPLFQITQLILKDVVNFDPHKTSPLLETIFPDSISGTRLCVEMALASERVPAPFDMYLHVTVRFVEESTSSSPLENKTCAICLEDMSQDVHDYQEMPNCPHVFHNDCIYKWLGHSNLCPLCRTVLEDEDDDDYPYYS
  protein production: failed

## MVPSGVRTGRWVAAARAAQRRPRVDSLGQPPSPESASTRAALYVHWPYCEKRCSYCNFNKYIPRGVEEGTVRNCLVTEARTLLRLSGVQRVESVFFGGGTPSLASPHTVAAVLEAVAQEVYLPADSEVTLEANPTSAPGPRLAAFGAAGVNRLSIGLQSLDDAELQLLGRTHSASDALRTLAEARLLFPGRVSVDLMLGLPAQKVEPWLQQLQKLLYHCDDHLSLYQLTLERGTSLFAQVQQGTLPAPDPDLAAEMYQEGRTVLRDAGFRQYEVSNFARNGALSTHNWTYWQCGQYLGIGPGAHGRFVPQGTGGHTREARIQTLEPDNWMKEVTLFGHGTRKCVRLGKLELLEEVLAMGLRTDVGVTHQHWQQFEPQLTLWDVFGASKEVEELLAQGLLLLDYRGLRCSWEGLAVLDSLLLTLLPQLQEAWQHRPSSPVSGG
  protein production: failed

## MVPTPKPVVDRMLELADVDETDVLYDLGSGDGRIVIRAARTHGARGVGIEIDPDLVKKARKNAKEAGVADLVEFRQGDLFEADISEATVVTLYLLPSVNQKLRPILFEQLSPGTPVVSHDFDMGRWAPDRTVDLEGDTVYRWTIPLEHHHHHH
  protein production: failed

## MVQQSEVRQMKHSVSTLNQEMTQLNQETVKITQQNRLNAKSSSGVYLLPGAKTPARLESQIGTLRMSLVNITPDADGTTLTLRIQGESNDPLPAFSGTVEYGQIQGTIDNFQEINVQNQLINAPASVLAPSDVDIPLQLKGISVDQLGFVRIHDIQPVMQLEHHHHHH
  protein production: not failed

## MVRIRWFFIRHAESEANVVERWRIAGRSEAARLTERGERQARVVGEAVAIRLEQVLRVDGGDAGGVSGDAGRRRVLAPVAFTSPLLRARQTAALVLEQVAQPVKLEPVDDLAEVYQGLWEDALRSEVHTPETLQAMARNPYEFRAPGGEAQADVERRVLRAVSRMSQRVLSLLSLELEENEQTDVIVLVFTHGYVCKCLIRSVLDASPHLTGQIQVDNGALVELWLEPAAQQGALTSAAELGMWTVLRINDTWGQLTASMR
  protein production: failed

## MVRKALLFVIDVALTYFAGVVALFSRFGFDFQEMSRYDESVIVYTVISAVVYILNGNYSIVWEYANARDFLILIRGSVISYLSNLAFFYVYRGIVLPRSVGFAVFLGSMVLLVLSRITWQWMIVNGRGKVPGEKRILIIGAGDAGVSILEEFEKHPHLGKIVAFVDDSPRKIGRKVRGVPVFGPIEKTMEFVEKMNVDEIVIAIPSASRAEMERILKSIDLKKVRVKTLPSVRELIEGRVRISHLKEISIEDLLGREEVKVDFHEIGKFLKGKKILVTGAGGSIGSELCKQIARMNPAEIFLLGHGETSIYLINEFLTEHFPEVKKKRIIADVADRKIMEHWLTQLRPDVIFHVAAHKHVPLMEENPLEAFRVNVLGTMNLVELSERLGVKYFVFISTDKAVNPTSVMGLTKRIAELYILSREKNSTNFSIVRFGNVLGSRGSVVEKFRRQIEKGGPVTVTDPRMKRYFMSIPEAVSLILQSLLFSSGKDLFILDMGEQIPILKLAETMIMLSGYTPYQDIKIVFTGIRPGEKMYEELLYPYEVKELTPHSKIFRVKTSVLPGKESVEQAINRMKEAFENSDVKGLLTEMKKLVPEAQINVGSDN
  protein production: failed

## MVRLEDYGTWDEALKRLEASRKALLALLREADPAWLSAPLREGAWTPLMVAEHVALVEDSTARVLRRLRRLAAGENLPPVPVKPGEFKDGKPQAPEGVRPKGGLSLEEVLALLDRARAFLLEEVAKADPQNPATFPHPFFGELNPLGWLRAAAYHEAHHLKALQASLPR
  protein production: not failed

## MVRLFGPLVGLFFAVALLWSFGNGAYVAITEPAAPTAESVFHKHPKELDLASNGAFGRFDKQQLQRGFQVYKEVCATCHSLKQIAFRDLAALGYSEAEVKAIAKGWPTKAATFNPVTGDRGERDNIPSDRIPAVYYAGQGVPPDLSLMTKARHDGGAYVYSLLTGYAEQPAELLKQFPDAKTPDGLHYNPYFANLNLAMPAPLTTDGQVTYSDGTKASVDQMAKDVSAFLVWTAEPKLDKRKQTGWAVLGFLLVATVLAYLAKKNVWADKH
  protein production: failed

## MVRMQTKAVMVFKLDEEGNAFYTQDIGDLYIFISRSEPFCVPASSFPGMFSNFVELLDVNENVTVDLSDYSMNGGFGYFGAPAHIPPQKLD
  protein production: failed

## MVRPYGIKVNKRKEREERYDKEEDEVEEQPKFEQKQKARESSKKAKKESTSRAEEDNDEEEVTVEATAAAEDIVGGIPIVLNAPNKEKSGIVFVLEKASLEVAKVGKTYQLLNSDDHANFLKKNNRNPADYRPDITHQALLMILDSPVNKAGRLKAVYVRTEKGVLFEVKPHVRIPRTFKRFAGIMLQLLQKLSITAVNSREKLLRCVKNPIEEHHLPVNSHRIGFSHSSEKLVNMQKHLATVCDDDRDTVFVVGAMAHGKIDCNYIDEFVSVSEYPLSAAYCISRICEALATNWNII
  protein production: failed

## MVRRKKLLSGVLLLSGMLCTGRVMAQQWLYKQAAVPIEYRVKDLLGRMTIEEKVGQLCCPLGWEMYTKTGKNEVTVSELYKKKMAEAPVGSFWAVLRADPWTQKTLETGLSPELSAKALNALQKYAVEETRLGIPVLFAEECPHGHMAIGTTVFPTALSAASTWNEGLMLKMGEAIALEARLQGANIGYGPVLDVAREPRWSRMEETFGEDPVLTTIMGVAMMKGMQGKVQNDGKHLYATLKHFAAYGVPESGHNGSRANCGMRQLLSEYLPPFRKAVKEGAGTLMTSYNAIDGVPCTANKELLTDVLRNQWGFKGFVYSDLISIEGIVGMRAAKDNKEAAVKALKAGLDMDLGGNAFGKNLKKAYEEGLITMADLDRAVGNVLRLKFQMGLFENPYVSPELAKKLVHSKEHKELARQVAREGVVLLKNEGVLPLSKHIGHLAVIGPNADEMYNQLGDYTAPQVREEVATVLDGIRAAVSESTRVTYVKGCAVRDTTATDIPAAVAAAQKADAVVLVVGGSSARDFKTKYISTGAATVSEDAKTLPDMDCGEGFDRSSLRLLGDQEKLISAVASTGKPLVVVYIQGRTMNMNLAAEKAQALLTAWYPGEQGGMGIADILFGDYSPAGRLPVSVPRSEGQLPVFYSQGTQRDYVESKGTPLYAFGYGLSYTRFTYSGLELQKGTEMETLQTVACTVTNTGNRDGEEVVQLYIGDKVASVSQPPLLLKAFQRIFLKKGESRQVIFHLKKDDLGIYDSEMNYVVEPGEFKVMVGAASNDIRLEGEFVL
  protein production: failed

## MVSAFNTGRTDDVDEYIHPDYLNPATLEHGIHTGPKAFAQLVGWVRATFSEEARLEEVRIEERGPWVKAYLVLYGRHVGRLVGMPPTDRRFSGEQVHLMRIVDGKIRDHRDWPDFQGTLRQLGDPWPDDEGWRP
  protein production: not failed

## MVSRLEHPAGGYKKVFESCEELAEPIPAHVSGKIPAWLSGSLLRMGPGLFEIGDEPFNHLFDGQALIHKFDLKDGRVTYHRKFIRTDAYVRAMTEKRVVITELGTAAYPDPCKNIFSRFFTYFQGTEVTDNCSVNIYPIGEDFYACTETNFITKVNPDTLETIKKVDLCNYLSVNGLTAHPHIEADGTVYNIGNCFGKNMSLAYNIVKIPPLQEEKSDPLAMSKVLVQFPSSERFKPSYVHSFGMTENHFVFVETPVKINLLKFLTSWSIRGSNYMDCFESNDRMGTWFHLAAKNPGKYINNPSQ
  protein production: failed

## MVTDADYRELRGATETPREAVVVGLAGEVGLTSAEIPRVRPCDVAPHDHDGVTHYFLAVPGADGGSDRDAYLPPAVERDIRRRADAAGLADDDPLVDVSARRVQTLVNAVAGRTDTAGLDGVAAQDLRSFFARRLLTGAGVDPRVVAAVGGWSRLASLDQYAAVDALEHHHHHH
  protein production: failed

## MVTGIVFHEEYLKHEQSPTHPERRERLAYTMDQLREEGIFESERIVLLEPFKASLEDVLEVHTEEYVRFLEMESKKGGIIDFDTNIPVGVFDRALLAAGGAIRAAQAVLNKECENAFAMIRPPGHHAKPYIGAGFCYLNNMAIMVKWLLKQGFERIAILDWDAHHGDGTQEIFYNDDRVLFISTHQMPLYPGTGYPEECGTGKGEGYTVNIPLPPGTGDEGYMMVIDEIIEPVVNEFKPQFIAISAGQDNHFTDPITSLALTARGYAEMMRRAVAMAEKHCDGRLVAVLEGGYSVEGALPYTNLGIIAAMAGFDLSAIREPENYLPELLWRKRDSALVKLKHNIEDVKRVHSKYWKCFK
  protein production: failed

## MVTLQAFQPLIDTVQGSLLLASPDDGHIYCANQLACILLASPHSELLKSSVYDFLPDKNEAYTICRELAGNNMIYNRGMQLSTSTGRIFDVQLSARRISLDQVPLLVVSFSDRTETKVLGQLLDFERQLVERSLSIVKTLKEEGRQNDDEDKLTGVVGMHRLMSSAHSETSRAKRYGGSLSGLALELVNVPEMVPREDDGSAYGHLIRLAGSLCLQSSRDSDLVARRSANTFVILLPHTAIGGANEMGRRLIKSLRQLTFLYQGTEHQAAACVGISALRPEESSPTPMLERLEEALKKARDGGANYIIQLP
  protein production: failed

## MVTNKLITLLPDLATFIVVVNEGSFTAAAKKLGVTPSALSKLITRLENALSVKLFERTTRSLLITESGKKIYQQSVIMVEAAQQAVDISSSEHTVPSGSLTVAAPKAFLTIVLQPLITPFLTKYPKIQLKLRASDGDIDMIAQGIDVVFRLTDKPTEGLVMKEIGKVNLSLCASPTYLEERGIPHLPQELANHDCLFLGETTTDHIWEFVKGTESHVIAVSGRYAVNHSQMRLNGVKDGFGIGIFPDFVIKEALANNEVISVLSDWQIKGNYHGVIAMQYAQNKYIPSRLKVFTEFVKENLMKSKVNDERT
  protein production: not failed

## MVTPFPEVSEWLCIGQIVGAHGLRGEVKVKPFSDFPERFTVPGCRWLRSPRQPQPYAVTLLRGRFLPRAEQFVVTFAEISDRTAAEALKGAEILVPASDRPPLAANEYHLMDLIGLAVYHQGERVGEVVGLVNAGNDLLEVQLLDPAPKAPQSVYIPFVPAIVPVVDLAARRIEIDPPLGLLPLEHHHHHH
  protein production: failed

## MVTREEFVARFGGVFEHSPFIAERAYDAGGAGLELTAKAVHGALCAQFRVASEAERLGVLRAHPDLAGKLAIAGELTADSRNEQAGAGLDRLSPQEHARFTQLNSAYTEKFGFPFIIAVKGLNRHDILSAFDTRIDNNAAQEFATATGQVEKIAWLRLASMLPEG
  protein production: not failed
